Reference: patent publication US8076087B2, “Galectin sequences and compositions and methods utilizing same for treating or diagnosing arthritis and other chronic inflammatory diseases” (Medical Research Fund of Tel Aviv Souraskv Medical Center, priority 2002, dated 2011)

Legend:
[1] = test system: synovial fluid cells from RA patients; assay: Apoptosis induction, annexin V/PI flow cytometry, synovial fluid cells; type: cell-based, human; conditions: for total cell population in the apoptotic area: untreated control 19%
Description: (§1) The assay was performed by Phosphatidyl Serine Detection Kit (IOP-116F FITC-conjugated, IQ Products, The Netherlands) using the manufacturer instructions. Human fibroblast cells from OA patients, synovial fluid cells and PBLs from RA and other arthritic patients were incubated with increasing concentrations of galectin-8 variants 1 and 2 (50-2000 ng/ml). Specific binding of annexin V was performed by the incubation of cells for 20 minutes on ice in a binding calcium buffer containing a saturating concentration of annexin V-fluorescein isothiocyanate (FITC) and propdium iodide (PI). After incubation, the cells were pelleted, and analyzed in FACS analyzer (Beckton Dickinson, San Jose, Calif.). Annexin V^+/PI^+ cells were defined as necrotic, while annexin V^+/PI^− cells were defined as apoptotic. The percent of the apoptotic cells of the total cells was determined.

[2] = test system: synovial fluid cells of arthritic patients; assay: Flow cytometry of recombinant galectin-8 binding to synovial fluid cells (anti-galectin-8 immunostaining); type: cell-based, human; conditions: 1 μM added to synovial fluid cells
Description: (§2) Peripheral white blood cells and the total cell population from synovial fluids of arthritic patients were isolated (approximately 10^7 cells) on a Ficoll gradient (Robbins Scientific Corporation, Sunngvale, Calif., USA) and analyzed by flow cytometry using anti-galectin-8 polyclonal antibody (generated in rabbits according to prior art protocols).
(§3) Specific binding of anti-galectin-8 was performed by the incubation of cells for 20 minutes on ice in a binding calcium buffer containing a saturating concentration of anti-galectin-8. Thereafter, a second incubation with a goat-anti-rat conjugated to fluorescein isothiocyanate (FITC) was effected. After incubation, the cells were pelleted, and analyzed in FACS analyzer (Beckton Dickinson, San Jose, Calif.). Following the initial analysis, recombinant galectin-8 (as prepared in Example 1) (1 μM) was added to both the synovial fluid cells and the PBLs to verify that recombinant galectin-8 may be detected by immunostaining with anti-galectin-8 polyclonal antibody.

[3] = test system: PBLs of arthritic patients; assay: Flow cytometry of recombinant galectin-8 binding to PBLs (anti-galectin-8 immunostaining); type: cell-based, human; conditions: 1 μM added to PBLs
Description: as §2, §3

IL-1ra = IL-1ra levels in media of LPS-supplemented human synovial tissue / cell cultures, sandwich enzyme immunoassay; type: cell-based; conditions: for increase of IL-1ra levels: synovial tissue culture, vs LPS treated control; for increase of IL-1ra levels / IL-1ra levels in media: LPS 3 μg/ml, 48 hours; for IL-1ra levels in media: 50-2000 ng/ml
Description: (§4) Specimen Selection and Culture Conditions: Synovial tissues were obtained from patients undergoing total knee or hip replacement for osteoarthritis (OA). Within 2 hours of removal, synovial tissues were cut into small pieces, of a few millimeters in diameter. Synovial fibroblasts were cultured in 2 ml RPMI 1640 supplemented with 2 mM L-glutamine, 100 U/ml penicillin and 100 μg/ml streptomycin sulphate (Biological Industries).
(§5) Inflammatory cells and PBLs derived from joints of rheumatoid arthritic (RA) patients were cultured individually [RPMI-1640 (Sigma, Israel)]. The murine fibroblast line, NIH 3T3, was used as a control. The recombinant galectin-8 peptide (r-galectin-8) was added to the culture medium of the synovial fibroblasts at a concentration of 0.125 μM, 0.25 μM, 0.5 μM and 1 μM) together with lipopolysaccharide (LPS, 3 μg/ml). The recombinant galectin-8 peptide variants (r-galectin-8 variant 1 and r-galectin-8 variant 2) were added to all the culture mediums in the following concentrations: 50 ng/ml, 125 ng/ml, 250 ng/ml, 500 ng/ml, 750 ng/ml, 1 μg/ml and 2 μg/ml together with lipopolysaccharide (LPS, 3 μg/ml). Following 48 hours of incubation (37° C., 5% CO2), the measurement of IL-1β, TNF-α and IL-1ra production was performed in supernatants by quantitative sandwich enzyme immunoassay technique (R&D Systems, Inc., USA). Detection limits were 1 pg/ml to 14 pg/ml. IL-1ra production was tested with and without the addition of lipopolysaccharide (LPS, 3 μg/ml) to the culture media.

[4] = test system: collagen induced arthritis (CIA); assay: Collagen-induced arthritis (CIA) in DBA/1 mice, footpad thickness; type: in vivo; conditions: 100 μg per injection, IP / systemic, from disease onset every day for 11 days
Excerpt: Animal treatment: 44 DBA/1 mice were induced with a joint inflammatory disease by two subcutaneous (s.c.) injections into the base of the tail of type II collagen three weeks apart. Joint inflammation, which appears several days after the last collagen injection, causes enhanced marked foot pad swelling, as well as swelling of other joints. The diameter of nonarthritic footpads is 1.5 to 1.7 mm. A footpad diameter of 1.9 to 2.0 mm was arbitrarily set as disease onset. […] Human galectin-8 protein and variants (100 μg per injection) as well as control injections were injected IP at disease onset and then every day for 11 days. The 44 mice were divided into 5 experimental groups as follows: Group 1 (negative control): systemic injection (starting at CIA onset) of PBS or PBS+30% glycerol (storing dilution solution of galectin proteins) (10 mice). Group 2 (positive control): systemic injection (starting at CIA onset) of anti-mouse TNFα mAb (cat. no. AMC-3012, Biosource Int. Inc. USA) adhering to the standard protocol (i.e., 100 μg antibody/mouse every day for 11 days) (6 mice). Group 3 (positive control): systemic injection of human galectin-8 protein according to the standard protocol (10 mice). Group 4: systemic injection of 100 μg per dose of human galectin-8 variant 1 according to the standard protocol (10 mice). Group 5: systemic injection of 100 μg per dose of human galectin-8 variant 2 (8 mice). The effect on footpad thickness was determined in a “blind” fashion, recording the electronic microcaliper measurements of the thickness of the joints, by picking the animals at random and recording their ears' signs following measurement. The mice were bled prior to disease induction, following disease onset and upon termination of the experiment (approximately day 11). The sera were stored and later analyzed for the presence of rheumatoid factor (RF) and cytokines. The mice were killed upon termination of the experiment and the joints removed from some of the animals for histopathological examination.

IL-1β = IL-1β levels in media of LPS-supplemented human synovial tissue / cell cultures, sandwich enzyme immunoassay; type: cell-based; conditions: for decrease of IL-1β levels: synovial tissue culture; for decrease of IL-1β levels / IL-1β levels in media: LPS 3 μg/ml, 48 hours; for IL-1β levels in media: 50-2000 ng/ml
Description: as §4, §5

TNFα = TNFα levels in media of LPS-supplemented human synovial tissue / cell cultures, sandwich enzyme immunoassay; type: cell-based; conditions: for decrease of TNFα levels: synovial tissue culture; for decrease of TNFα levels / TNFα levels in media: LPS 3 μg/ml, 48 hours; for TNFα levels in media: 50-2000 ng/ml
Description: as §4, §5

[5] = test system: PBLs of arthritic patients; assay: Apoptosis induction, annexin V/PI flow cytometry, PBLs; type: cell-based, human; conditions: lowest concentration 50 ng/ml
Description: as §1

[6] = test system: human fibroblasts from OA patients; assay: Apoptosis induction, annexin V/PI flow cytometry, OA fibroblasts; type: cell-based; conditions: for total cell population in the apoptotic area: 24 h, no-addition control 39.5%
Description: as §1

[7] = 0.25 μM, 0.5 μM and 1 μM, vs LPS treated control, dose dependent
[8] = 0.125 μM, vs LPS treated control
[9] = 0.25 μM, vs LPS treated control
[10] = human fibroblasts from OA patients

Molecule: COc1cccc2c1C(=O)c1c(O)c3c(c(O)c1C2=O)C[C@@](O)(C(=O)CO)C[C@@H]3O[C@H]1C[C@H](N)[C@H](O)[C@H](C)O1 [doxorubicine, reference compound]
- total cell population in the necrotic area ([1]; 24 h, 150 μg/ml, positive control): 80%

B1: galectin-8: recombinant human galectin-8 polypeptide, SEQ ID NO: 4, expressed in E. coli (protein)
chain: MLSLNNLQNIIYNPVIPYVGTIPDQLDPGTLIVICGHVPSDADRFQVDLQNGSSVKPRADVAFHFNPRFKRAGCIVCNTLINEKWGREEITYDTPFKREKSFEIVIMVLKDKFQVAVNGKHTLLYGHRIGPEKIDTLGIYGKVNIHSIGFSFSSDLQSTQASSLELTEISRENVPKSGTPQLSLPFAARLNTPMGPGRTVVVKGEVNANAKSFNVDLLAGKSKDIALHLNPRLNIKAFVRNSFLQESWGEEERNITSFPFSPGMYFEMIIYCDVREFKVAVNGVHSLEYKHRFKELSSIDTLEINGDIHLLEVRSW
- detection of added recombinant galectin-8 on cells by anti-galectin-8 immunostaining [2]: detected
- detection of added recombinant galectin-8 on cells by anti-galectin-8 immunostaining [3]: detected
- IL-1ra production in the media of human synovial tissue (IL-1ra; 0.25 μM, 0.5 μM and 1 μM, vs untreated control, dose dependent): increased
- increase of IL-1ra levels (IL-1ra; 0.25 μM): approximately 4 fold
- increase of IL-1ra levels (IL-1ra; 0.5 μM): ~9 fold
- increase of IL-1ra levels (IL-1ra; 1 μM): ~22 fold
- CIA manifestations (footpad swelling) [4]: substantially reduced
- IL-1β release in the media of human synovial tissue (IL-1β; [7]): inhibited
- decrease of IL-1β levels (IL-1β; [8]): approximately 9%
- decrease of IL-1β levels (IL-1β; [9]): ~42%
- decrease of IL-1β levels (IL-1β; 0.5 μM, vs LPS treated control): ~67%
- apoptotic effects in human synovial fluid cells ([1]; 0.03 μM, 0.1 μM, 0.3 μM and 1 μM, dose dependent, vs serum free medium): induced apoptotic effects
- total cell population in the apoptotic area ([1]; 24 h, 0.03 μM): 17%
- total cell population in the apoptotic area ([1]; 24 h, 0.1 μM): 20%
- total cell population in the apoptotic area ([1]; 24 h, 0.3 μM): 23%
- increase in apoptosis development ([1]; 24 h, 1 μM, vs untreated control): 3 fold
- total cell population in the apoptotic area ([1]; 24 h, 1 μM): 58%
- TNF-α release in the media of human synovial tissue (TNFα; [7]): inhibited
- decrease of TNFα levels (TNFα; [8]): approximately 2%
- decrease of TNFα levels (TNFα; [9]): ~43%
- decrease of TNFα levels (TNFα; 0.5 μM, vs LPS treated control): ~74%

B2: galectin-8 variant 2: recombinant galectin-8 variant 2 polypeptide, SEQ ID NO: 8, isoform found in synovial fluid cells of arthritic patients (protein)
chain: MMLSLNNLENIIYNPYIPYVGTIPDQLDPGTLIVICGHVPSDADRFQVDLQNGSSVKPRADVAFHFNPRFKRAGCIVCNTLINEKWGREEITYDTPFKREKSFEIVIMVLKDKFQDLQSTQASSLELTEISRENVPKSGTPQLSLPFAARLNTPMGPGRTVVVKVRSECKCQKMIIYCDVREFKVAVNGVHSLEYKHRFKELSSIDTLEINGDIHLLEVRSW
- maximal apoptotic effect [5]: approximately 100%
- IL-1ra levels in media (IL-1ra; PBLs of RA patients): significantly and dose-dependently increased
- IL-1ra levels in media (IL-1ra; [10]): significantly and dose-dependently increased
- IL-1ra levels in media (IL-1ra; synovial fluid cells (SFCs)): significantly and dose-dependently increased
- CIA manifestations (footpad swelling) [4]: did not influence
- IL-1β levels in media (IL-1β; PBLs from RA patients): significantly and dose-dependently inhibited
- IL-1β levels in media (IL-1β; [10]): significantly and dose-dependently inhibited
- IL-1β levels in media (IL-1β; synovial fluid cells (SFCs)): significantly and dose-dependently inhibited
- total cell population in the apoptotic area ([6]; 125 ng/ml): 52.2%
- total cell population in the apoptotic area ([6]; 250 ng/ml): 50.8%
- total cell population in the apoptotic area ([6]; 500 ng/ml): 62%
- total cell population in the apoptotic area ([6]; 750 ng/ml): 59%
- total cell population in the apoptotic area ([6]; 1000 ng/ml): 71.4%
- total cell population in the apoptotic area ([6]; 2000 ng/ml): 77.4%
- percentage of apoptotic cells ([6]; increasing concentrations (50-2000 ng/ml)): gradually increased
- maximal apoptotic effect ([1]; inflammatory cells from joints of arthritic patients, lowest concentration 50 ng/ml): approximately 100%
- TNFα levels in media (TNFα; PBLs from RA patients): significantly and dose-dependently inhibited
- TNFα levels in media (TNFα; [10]): significantly and dose-dependently inhibited
- TNFα levels in media (TNFα; synovial fluid cells (SFCs)): significantly and dose-dependently inhibited
